The target of the test is T1, CD163 receptor on surface of human macrophages (Homo sapiens, UniProt Q86VB7).
T1 construct: Freshly drawn peripheral whole blood samples or PBMC; endogenous in cells; host or cells: human peripheral blood monocytes, blood dendritic cells, monocyte-derived macrophages (healthy donors, buffy coats)
Kind of test: Cellular binding and uptake of fluorescently labeled CD163 antibodies in monocyte-derived macrophages. The test is classed as cell-based. On the procedure:
Monocytes were isolated from PBMC by negative selection using magnetic beads from Dynal (Dynabeads® MyPure™ Monocyte Kit 2; Invitrogen A/S, Taastrup, Denmark) according to instructions provided by the manufacturer. Monocyte preparations were more than 95% (CD14^+) pure determined by flow cytometry. The isolated cells were washed twice with phosphate-buffered saline. Monocyte-derived macrophages (MDMs) were prepared by cell culture of monocytes (approximately 1×10^7 cells) for 4 days in 5% CO2 and 37° C. in RPMI 1640 media (RPMI 1640+25 mM HEPES+I-glutamine) (Invitrogen Corporation, Carlsbad, Calif., USA) with 20% FCS containing 100 ng/ml of M-CSF. MDMs were then detached from the flask by incubation with cell dissociation buffer (Invitrogen A/S, Taastrup, Denmark) for 30 minutes at 4 °C, then flushed, and scraped. The cells were then cultured for 24 hours in RPMI 1640 media (RPMI 1640+25 mM HEPES+I-glutamine) (Invitrogen Corporation, Carlsbad, Calif., USA) supplemented with 20% FCS containing 100 ng/ml of M-CSF at 37° C. in 95% air and 5% CO2 in Lab-Tek™ Chamber Slides (Thermo Fisher Scientific, Roskilde, Denmark). 200 nM dexamethasone (Merck KGaA, Darmstadt, Germany) was added during culture to increase CD163 expression. Stably transfected Chinese hamster ovary (CHO) cells expressing the full-length human CD163, as described above, were cultured in serum-free CHO medium (HyQ-CCM, HyClone, Logan, Utah) containing 300 μg/ml Hygromycin B, as previously described (2).
MDMs or CHO cells were washed with 4° C. cold D-PBS, pH 7.4, containing 1% BSA in Lab-Tek™ Chamber Slides (Thermo Fisher Scientific, Roskilde, Denmark). The cells were then incubated with 10 μg/ml different clones of anti-CD163 for one hour at 4° C. and then washed three times with D-PBS, pH 7.4, with 1% BSA. […] Fluorescence was visualized using a Zeiss Axiovert 200M microscope (Carl Zeiss GmbH, Jena, Germany) with an ×100 oil-immersion objective. […] Alternatively, immunostained cells were analyzed by confocal immunofluorescence microscopy using a Zeiss LSM-510 confocal microscope (Carl Zeiss GmbH, Jena, Germany). […]

T1 sequence (Q86VB7 42-1156): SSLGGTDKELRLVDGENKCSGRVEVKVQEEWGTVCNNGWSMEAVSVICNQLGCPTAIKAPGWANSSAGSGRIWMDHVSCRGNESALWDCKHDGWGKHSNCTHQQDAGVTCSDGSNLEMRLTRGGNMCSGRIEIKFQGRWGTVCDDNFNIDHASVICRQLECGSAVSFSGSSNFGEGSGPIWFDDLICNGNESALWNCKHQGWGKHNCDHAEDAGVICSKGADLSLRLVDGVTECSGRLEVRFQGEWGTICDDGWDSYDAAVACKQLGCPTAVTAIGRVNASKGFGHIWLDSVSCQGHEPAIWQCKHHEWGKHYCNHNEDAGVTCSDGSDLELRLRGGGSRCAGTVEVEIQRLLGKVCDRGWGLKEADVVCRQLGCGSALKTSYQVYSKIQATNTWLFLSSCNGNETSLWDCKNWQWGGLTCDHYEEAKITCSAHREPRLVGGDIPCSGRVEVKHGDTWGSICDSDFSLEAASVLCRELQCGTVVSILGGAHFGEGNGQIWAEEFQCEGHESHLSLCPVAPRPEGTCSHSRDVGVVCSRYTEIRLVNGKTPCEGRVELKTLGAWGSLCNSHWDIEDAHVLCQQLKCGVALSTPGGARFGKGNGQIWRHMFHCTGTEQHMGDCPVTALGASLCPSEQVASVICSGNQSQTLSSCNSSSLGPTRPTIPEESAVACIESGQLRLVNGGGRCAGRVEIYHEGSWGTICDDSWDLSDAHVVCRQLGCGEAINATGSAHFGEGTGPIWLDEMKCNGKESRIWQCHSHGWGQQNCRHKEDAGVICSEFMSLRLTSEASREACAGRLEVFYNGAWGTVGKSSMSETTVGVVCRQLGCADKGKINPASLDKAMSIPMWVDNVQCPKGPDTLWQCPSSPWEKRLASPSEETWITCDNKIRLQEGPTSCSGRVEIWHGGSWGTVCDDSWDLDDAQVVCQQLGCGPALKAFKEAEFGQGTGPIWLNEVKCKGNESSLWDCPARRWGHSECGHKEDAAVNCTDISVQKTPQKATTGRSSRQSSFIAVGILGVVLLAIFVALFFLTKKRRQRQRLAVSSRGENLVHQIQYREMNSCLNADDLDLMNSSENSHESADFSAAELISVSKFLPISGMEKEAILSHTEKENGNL

B1: MAC2-158: anti-human CD163 murine mAb, binds SRCR domain 1, IQ Products; VH SEQ ID NO: 1, VL SEQ ID NO: 2 (antibody, V domains shown)
VH: DVQLQESGPGLVKPSQSLSLTCTVTGYSITSDYAWNWIRQFPGNKLEWMGYITYSGITNYNPSLKSQISITRDTSKNQFFLQLNSVTTEDTATYYCVSGTYYFDYWGQGTTLTVSS
VL: SVVMTQTPKSLLISIGDRVTITCKASQSVSSDVAWFQQKPGQSPKPLIYYASNRYTGVPDRFTGSGYGTDFTFTISSVQAEDLAVYFCGQDYTSPRTFGGGTKLEIKRA
modifications: Mac2-158 VH; Mac2-158 VL
On to B1, for which the binding and uptake entry (0 or 30 minutes, FIG. 6) is “best binding and uptake”. Also, the “intensity of intracellular staining” value (after incubation for 30 min) was “most prominent”. Moreover, the cell surface staining result (immunofluorescence, 0 min, macrophages stimulated with 200 nM dexamethasone) is recorded as “pronounced cell surface staining”.

(Values after US20170119790A1, “Agents, Uses and Methods” (CYTOGUIDE A/S, priority 2009, published 2017).)
